What is called Kd is the constant that tells how readily two partners part at equilibrium. Low values mean a tighter complex, high ones a looser complex. Usually koff stands for a measure of how fast the partners let go of each other. A low value points to a long-lived complex. What is called kon is the second-order rate constant of association. Read a high kon as faster complex formation.

The target of assay [1] is A244 gDΔ11 gp120 (Herpes simplex virus; HIV-1). The experiment in a line: SPR, Fab amine-coupled to the sensor surface, gp120 flowed. Background: In SPR one partner is held on a chip, and binding of the other changes the refractive index at the surface.
The target of assay [2] is A244 gp120 (no modifications) (HIV-1). The description is as above.
The target in assay [3] is A244 gDΔ11 gp120 (Herpes simplex virus; HIV-1). In words: Kd table; row AE.A244 gp120, column A32 gD+; method not given.
For assay [4], the target named is 92TH023 gDΔ11 gp120 (Herpes simplex virus; HIV-1). In words: Kd table; row AE.92TH023 gp120, column A32 gD+; method not given.
Assay [5] concerns the target A244 gDΔ11 gp120 (Herpes simplex virus; HIV-1). The experiment in a line: SPR, mAb captured on anti-Fc surface, monomeric gp120 as analyte.
The target in assay [6] is A244 Δ11 gp120 (HIV-1). Described as above.
Assay [7] concerns the target A244 gp120 (no modifications) (HIV-1). The assay is described as above.
In assay [8] the target is MN-rgp120 (RV144 vaccine immunogen) (Herpes simplex virus; HIV-1). The experiment in a line: SPR; A32 captured on anti-Fc surface, RV144 MN-rgp120 injected at 0.5-5 µg/mL; fitted curves.
Assay [9] concerns the target MN gDΔ11 gp120 (Herpes simplex virus; HIV-1). The experiment in a line: Kd table; row B.MN gp120, column A32 gD+; method not given.
Assay [10] concerns the target A244 Δ11 gp120 (HIV-1). In words: SPR blocking on immobilized A244 Δ11 gp120, mAb injected to near saturation, then RV144 vaccinee IgG; against 7B2 control.
Assay [11] concerns the target A244 gp120 (no modifications) (HIV-1). In words: Kd table; row AE.A244 gp120, column A32 gD-; method not given.
In assay [12] the target is A244 Δ11 gp120 (HIV-1). The experiment in a line: SPR; A244 gp120 gD- Δ11 293T monomer batch 110608 flowed over immobilised A32; response axis in RU.
The target of assay [13] is A244 gDΔ11 gp120 (Herpes simplex virus; HIV-1). The experiment in a line: SPR.
Assay [14] addresses A244 Δ11 gp120 (HIV-1). The experiment in a line: SPR.
Assay [15] addresses MN gp120 (no modifications) (HIV-1). In words: Kd table; row B.MN gp120, column A32 gD-; method not given.
Assay [16] has as its target 92TH023 gDΔ11 gp120 (Herpes simplex virus; HIV-1). In words: SPR, not detailed.
The target in assay [17] is MN gDΔ11 gp120 (Herpes simplex virus; HIV-1). In words: SPR, not detailed.
Assay [18] has as its target A244 Δ11 gp120 (HIV-1). In words: SPR; A244 gp120 gD- Δ11 293T monomer batch 110608 flowed over immobilised A32; ratio to ConS gp140.
The target of assay [19] is 92TH023 gp120 (no modifications) (HIV-1). In words: Kd table; row AE.92TH023 gp120, column A32 gD-; method not given.
The target in assay [20] is A244-rgp120 (RV144 vaccine immunogen) (Herpes simplex virus; HIV-1). The experiment in a line: SPR; A32 captured on anti-Fc surface, RV144 A244-rgp120 injected at 0.5-5 µg/mL; fitted curves [lower row].
In assay [21] the target is A244 gp120 (no modifications) (HIV-1). In words: SPR titration, binding to 697D mAb (697-30D); A244gDneg293Tmon at [5] to [40], unit inferred; constant labelled kd1.
For assay [22] the target is unchanged. The experiment in a line: SPR titration, binding to 697D mAb (697-30D); A244gDneg293Tmon at [5], [10], [20], [40], unit inferred; constant labelled ka1.
The target is the same in assay [23]. In words: Kd table; row AE.A244 gp120, column 697D gD-; method not given.
Assay [24] deals with 92TH023 gDΔ11 gp120 (Herpes simplex virus; HIV-1). The experiment in a line: Kd table; row AE.92TH023 gp120, column 697D gD+; method not given.
In assay [25] the target is MN-rgp120 (RV144 vaccine immunogen) (Herpes simplex virus; HIV-1). In words: SPR; 697D captured on anti-Fc surface, RV144 MN-rgp120 injected at 5.0-100 µg/mL; fitted curves.
Assay [26] has as its target 92TH023 gp120 (no modifications) (HIV-1). In words: Kd table; row AE.92TH023 gp120, column 697D gD-; method not given.
The target of assay [27] is MN gp120 (no modifications) (HIV-1). The experiment in a line: Kd table; row B.MN gp120, column 697D gD-; method not given.
Assay [28] deals with A244 gDΔ11 gp120 (Herpes simplex virus; HIV-1). The experiment in a line: SPR titration, binding to 697D mAb (697-30D); A244 gD+ monomer at [10] to [40], unit inferred.
In assay [29] the target is A244 Δ11 gp120 (HIV-1). In words: SPR titration, binding to 697D mAb; A244 gDneg D11 at [2], [4], [6], [10], [25], [50], unit inferred.
For assay [30], the target named is MN gDΔ11 gp120 (Herpes simplex virus; HIV-1). The experiment in a line: Kd table; row B.MN gp120, column 697D gD+; method not given.
Assay [31] deals with A244 gDΔ11 gp120 (Herpes simplex virus; HIV-1). In words: SPR titration, binding to 697D mAb (697-30D); A244 gD+ monomer at [10], [20], [30], [40], unit inferred.
Assay [32] has as its target A244-rgp120 (RV144 vaccine immunogen) (Herpes simplex virus; HIV-1). The experiment in a line: SPR; 697D captured on anti-Fc surface, RV144 A244-rgp120 injected at 5.0-100 µg/mL; fitted curves [lower row].
The target of assay [33] is A244 gp120 (no modifications) (HIV-1). In words: SPR titration, binding to 697D mAb (697-30D); A244gDneg293Tmon at [5] to [40], unit inferred.
Assay [34] concerns the target A244 Δ11 gp120 (HIV-1). The experiment in a line: SPR titration, binding to 697D mAb; A244 gDneg D11 at [2] to [50], unit inferred.
In assay [35] the target is A244 gDΔ11 gp120 (Herpes simplex virus; HIV-1). The experiment in a line: Kd table; row AE.A244 gp120, column 697D gD+; method not given.
For assay [36], the target named is A244-rgp120 (RV144 vaccine immunogen) (Herpes simplex virus; HIV-1). The experiment in a line: SPR, mAb captured on anti-Fc surface, gp120 as analyte (FIG. 28).
Assay [37] has as its target MN-rgp120 (RV144 vaccine immunogen) (Herpes simplex virus; HIV-1). The assay is described as above.
For assay [38], the target named is A244 gp120 (no modifications) (HIV-1). The experiment in a line: SPR.

For the substance 697D Fab, in assay [1], the dissociation constant Kd amounted to 690 nM, the fold higher affinity than to unmodified A244 gp120 came out at 8 fold and the fold higher ka than to A244 gp120 was determined as 10 fold. Also, in assay [2], the dissociation constant Kd came to 5700 nM.

Turning to C1 mAb A32 (antibody), the equilibrium dissociation constant (Kd) in [3] worked out at 0.13 nM; in [4], 1.35 nM; in [5], 1 nM; in the assay with A244 Δ11 gp120 (HIV-1) [6] it was 0.67 nM; in assay [7], 6.25 nM; in [8] it was 0.21 nM. The Kd in assay [9] was found to be 4.15 nM; in assay [11] it was 2.6 nM; in assay [15], 0.8 nM; in assay [19], 4.6 nM; in assay [20], 1.13 nM. Further, the koff in assay [5] is 0.000133 s⁻¹; with A244 Δ11 gp120 (HIV-1) [6], 0.00015 s⁻¹; in assay [7], 0.00047 s⁻¹. The results for the kon (in assay [5]; with A244 Δ11 gp120 (HIV-1) [6]; in assay [7]) were 134000 M⁻¹ s⁻¹, 223000 M⁻¹ s⁻¹ and 76800 M⁻¹ s⁻¹, respectively. Besides, in the assay with A244 Δ11 gp120 (HIV-1) [10], the percent blocking of RV144 vaccinee IgG binding turned out to be 66%. Also, in the assay with A244 Δ11 gp120 (HIV-1) [12], the Req amounted to 2290. Further, the fold higher affinity than to A244 gp120 was determined as 6 fold in assay [13] and 9 fold in the assay with A244 Δ11 gp120 (HIV-1) [14]. Also, the fold enhancement of binding against the unmodified protein in assay [16] and in [17] was 2 to 3 fold throughout. Further, the Relative Binding Env/ConS gp140 with A244 Δ11 gp120 (HIV-1) [18] turned out to be 5.16.

Consider V2 mAb 697D (antibody), for which the koff in assay [21] amounted to 0.0063 s⁻¹; in assay [5], 0.00524 s⁻¹; with A244 Δ11 gp120 (HIV-1) [6] it was 0.00518 s⁻¹; in assay [7], 0.007 s⁻¹; in assay [28] it was 0.0066 s⁻¹; with A244 Δ11 gp120 (HIV-1) [34], 0.0033 s⁻¹. Also, the kon in assay [22] was found to be 3400 M⁻¹ s⁻¹; in assay [5] it was 24900 M⁻¹ s⁻¹; in the assay with A244 Δ11 gp120 (HIV-1) [6], 26800 M⁻¹ s⁻¹; in assay [7], 4900 M⁻¹ s⁻¹; with A244 Δ11 gp120 (HIV-1) [29], 24700 M⁻¹ s⁻¹; in assay [31] it was 40000 M⁻¹ s⁻¹. Further, the Kd in assay [23] is 1000 nM; in assay [24], 734 nM; in assay [25], 318 nM; in assay [26], 1310 nM; in assay [5] it was 218 nM; with A244 Δ11 gp120 (HIV-1) [6], 157 nM. The equilibrium dissociation constant (Kd) in assay [7] came out at 1470 nM; in assay [27], 1070 nM; in [28], 162 nM; in assay [30], 488 nM; in [32] it was 477 nM; in assay [33], 1900 nM. The Kd with A244 Δ11 gp120 (HIV-1) [34] turned out to be 98.7 nM; in assay [35], 180 nM; in [36] it was 318 nM; in assay [37], 477 nM. Also, the fold higher affinity than to A244 gp120 (in assay [13]; with A244 Δ11 gp120 (HIV-1) [14]) was 10 fold in each case. The substance further yielded a fold tighter binding than to A244 gp120 with no modifications with A244 Δ11 gp120 (HIV-1) [14] of 10 fold. Besides, the fold enhancement of binding against the unmodified protein in [16] and in [17] was 2 to 3 fold throughout.

With V2 mAb 2158 (antibody), in assay [5], the equilibrium dissociation constant (Kd) came out at 3.7 nM, the dissociation rate constant (koff) came out at 0.0001 s⁻¹ and the kon worked out at 28700 M⁻¹ s⁻¹. In the assay with A244 Δ11 gp120 (HIV-1) [6], this substance gave a Kd of 3.68 nM, a koff of 0.00013 s⁻¹ and a kon of 36500 M⁻¹ s⁻¹. In [7], the Kd was found to be 11.2 nM, the koff was 0.00019 s⁻¹ and the on-rate (kon) came to 16400 M⁻¹ s⁻¹. For the same substance, in [38], the fold lower affinity than for A244gDΔ11 and A244Δ11 gp120 was 3 fold.
